Measured values reported in US20140010756A1 (KAGOSHIMA UNIVERSITY, published 2014).

Biological target: T1, human folate receptor β (FRβ) (human, UniProt P14207 23-230)
T1 construct: Expressed on mouse B300-19 cells from cDNA cloned from human rheumatoid synovial membrane; also called human FRβ
Assay: hybridoma antibodies selected by reactivity with FRβ-expressing cells (human FRβ on mouse B300-19 cells); reactivity analysed by flow cytometry

T1 sequence (P14207 23-230 S117T limits assumed): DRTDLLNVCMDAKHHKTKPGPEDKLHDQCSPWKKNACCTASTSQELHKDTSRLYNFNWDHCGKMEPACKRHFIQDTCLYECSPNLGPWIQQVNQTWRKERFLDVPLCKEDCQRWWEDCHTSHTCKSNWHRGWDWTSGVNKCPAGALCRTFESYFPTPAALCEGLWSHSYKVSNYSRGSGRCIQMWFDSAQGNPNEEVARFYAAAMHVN

B1: anti-human FRβ mouse monoclonal antibody 36b (antibody, mouse IgG2a, V domains shown)
VH: QVQLQQSGAELMKPGASLKISCKATGYTFSSYWIEWVKQRPGHGLQWIGEILPGSGSSNYNEKFKGKATFTADTSSNTAYMQLSSLTSEDSAVYYCARRGSSGSYFAMDYWGQGTSVTVSS
VL: DIQMTQSSSSFSVSLGDRVTITCKASEDIYNRLAWYQQKPGNAPRLLISGATSLETGVPLRFSGSGSGKDYTLSITSLQTEDIATYYCQQYWSTPWTFGGGTKLEIKK
notes: also called Clone 36b
binding result: binds
